# B1: SSAP_223: SEQ ID NO: 392; Haloactinospora alba (protein, listed as Haloactinospora alba)
# chain: GQSVTNAVAQRDTSPSGMVGKYRDDFAQVMPSHVNGAGWVRIAQGILRRDAKLAEAARNAPQSLMSALMDAAQQGLTPGTTEFYLVPRKRKGSLEVQGITGYQGEIELIYRAGAVASVVAEIVHEHDTFEWIPGKHERPIHEADWFGNRGTMVGAYAYAVMNSGSTSKVVILNQHDIEKARAMSDGADSSYSPWQKWPESMWLKTAAHRLAKWVPTSAEYRHEQERARARSEDTEIPASPDSDVVHAEIVEENDDEQAT
# B2: SSAP_302: SEQ ID NO: 471; Clostridium saccharobutylicum (protein, listed as Clostridium saccharobutylicum)
# chain: ATNSSLKNQLIEKEQTTVNVQETMFKNLINSDDVKSKFTEVLKDKAIQYINSIINLVNSDKDLIECEPKSIIDACMSAVSLDLSVDKNLEYVEIIPYKKKANFQLGYRGYIQLLLRTGEYKSVNIIEVYEGQLKSWNQLAEEFDIDFTYKKSDAVIGYAGYFEMLNGFRKSVYWSKENMDALRENSFKSDTRWNNDYKAMAKRAVIRNMISKWGSLSIEMEKAYCEDLNTDKFVNGN
# B3: SSAP_296: SEQ ID NO: 465; Peptostreptococcaceae bacterium VA2 (protein)
# chain: QPFLVQRYPHLDVVLNDQVHVLKSFFFQNHIILYLYKYIECLQIFHKPLLKGDRGKVIGYYAVYHLEPNGYNFVFMTYDEVKNHGKKYSKNFEGGIWEKEFDSMAKKTVIKKLLKYAPLSIEMQKAVTFDESVKGSIDNDMLLVESIEDVEEIQLDTNI
# modifications: Peptostreptococcaceae bacterium VA2
# B4: SSAP_143: SEQ ID NO: 312; Staphylococcus chromogenes (protein)
# chain: ANAKEFKKQMNSKNEVAETNNAPQKAKGPRQQVSDLLDRMAPEIQKALPNNMSAERMARIAMTAVSSNPKLLECDPKSFIGALMQASQIGLEPNTALGQAYLIPYGNQVQLQLSYLGLIELATRTGQYKAIYAHEVYKDDEFSYEYGLYKNLIHKPVDDPNGEPIGYYAVYHLMNGGYDFAYWTRKKVEAHAQQYSKAVQQGWNSPWKSDFNAMAKKTVLKDLLKYAPKAIEVSQAIGSDSKVSEINDEGEIIDVTDYSQEEEK
# modifications: Staphylococcus chromogenes
# B5: SSAP_75: SEQ ID NO: 244 (protein)
# chain: ANELGIFSVDNLNMTTIKQYLDGGGKASDAELVLLINLCKQNNMNPFMKEVYFIKYGNQPAQIVVSRDFYRKRAFQNPNFAGIEVGVIVLNKDGVLEHNEGTFKTHEQELVGAWARVHLKNTEIPVYVAVSYDEYVQMKDGHPNKMWTNKPCTMLGKVAESQALRMAFPAEFSGTYGEEELPEPEKEPREVNGVKEPDRAQIESFDKEDYAAKKIEELKEKAQPQKEVVKETGEVIDKITAEDF
# B6: SSAP_135: SEQ ID NO: 304; Amycolatopsis arida (protein, listed as Amycolatopsis arida)
# chain: HGTALNPERFTRVALTVIRQSADLQRCRPESLLGALMTSAQLGLEPGPLGEAYLVPYGDQVTFIPGYRGLIKLAWQSGQLRHISARVVHEGDRFSYSYGLHPDLIHQPTRGDRGPITDVYAAATLIDGGVEFEVLDVATVETIRARSRAGRKGPWVTDWEAMARKTAIRQLAKWLPMATVMSRAIAAEGTVRTDLDADALDDLTADPGPEVLDADPAWDGPEPPGDQARNQEPTTQGDA
# B7: SSAP_93: SEQ ID NO: 262; Morganella morganii (protein, listed as Morganella morganii)
# chain: SNPPIAQADLQKAQGTAVKEKTKDQQLIQFINQPGMKAQLAAALPRHITPDRMIRIVTTEIRKTPSLATCDMQSFIGAVVQCSQLGLEPGNALGHAYLLPFGNGKAASGQSNVQLIIGYRGMIDLARRSGQIISISARTVREGDSFHFEYGLNEDLTHVPGENDSGPITHVYAVARLKEGGVQFEVMSFSQIEKVRDSSKAGKNGPWVSHWEEMAKKTVIRRLFKYLPVSIEMQRAVILDEKAEANVDQEHASIFEGEYETVSPE
# B8: SSAP_287: SEQ ID NO: 456; Leifsonia xyli subsp. xyli str. CTCB07 (protein, listed as Leifsonia xyli)
# chain: AVKKNPTIEDYLIKYEPEFQRALGASMDAAKFAQDALTAIKQNPKIGHSDPRSLFGALFLAAQLKLPVGGPLAQFHLTTRTVKGNLTVVPIVGYGGYVQLIMNTGLYSRVSAFLIHAGDYFVTGANSERGEFYDFRRADSDRGEVKGVIAYAKVKGHNESSWVYIDAETMRAKHRPKYWESTPWADDAGEMFKKTGIRVLQKYLPKSVESLNVALAASADQAIVRKVDGVPDLDIQHDRDTETVAVPEQPVSVPQPGDET
# B9: SSAP_295: SEQ ID NO: 464; Pseudoalteromonas (multispecies) (protein, listed as Pseudoalteromonas sp.)
# chain: SLSLQEYQNLLYGKLTACKGQFDACLSENGYKLDFNTELNYVYQIVMSGLNVEYSFPYTPVESVITSFLKAAKIGLSLCPTEQLCFLKTEYSESSGQYVTQLGLGYKGILKLAYRSGKVKQINANVFYEKDNFQYNGVNSKVTHTTTVLSKAMRGQLAGGYCQTELIDGSFKTTVMPPEEILAIEEQGKAMGNEAWLSVHVDQMREKTLIKRHWKTLCPCIYRDSVMNDPMLFDDQDCQHSSNQQAYEEQFESAYSREAY
# What was measured:
# Format in all cases: cell-based
# gene editing with Cas9 = assay: Screen of 322 new SSAP proteins, gene editing activity with Cas9 (Table 5); design: Cas9 with SSAP activity: scale not given here
# In short: (§1)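 First, 322 new single-strand annealing proteins are identified from sequences. Next they are synthesized. Finally each is assayed for editing in combination with Cas9 and, separately, dCas9.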
# gene editing with dCas9 = assay: Screen of 322 new SSAP proteins, gene editing activity with dCas9 (Table 5); design: dCas9 with SSAP activity: scale not given here
# In short: as §1
# [1] = test system: gene editing with Cas9 and dCas9; assay: Screen of 322 new SSAP proteins, activity across all experiments (Cas9 and dCas9, Table 5); design: scale not given here
# In short: as §1
Molecule,Cas9 with SSAP activity (gene editing with Cas9),Cas9 with SSAP activity (normalized) (gene editing with Cas9),dCas9 with SSAP activity (gene editing with dCas9),dCas9 with SSAP activity (normalized) (gene editing with dCas9),Activity across all experiments [1]
B1,0.236,0.173,−1.928,−0.948,−0.846
B2,−0.842,−0.289,−1.946,−0.772,−1.394
B3,0.244,0.617,−1.749,−0.598,−0.753
B4,−0.553,−1.314,−1.842,−1.900,−1.198
B5,0.284,0.225,−1.658,−0.897,−0.687
B6,−1.283,−0.722,−1.826,−2.544,−1.554
B7,0.714,1.299,−2.015,−0.557,−0.650
B8,0.085,0.091,−2.044,−1.493,−0.980
B9,−2.337,−0.343,−2.038,−0.267,−2.188

# Source: US20250034594A1, “RNA-GUIDED GENOME RECOMBINEERING AT KILOBASE SCALE” (THE BOARD OF TRUSTEES OF THE LELAND STANFORD JUNIOR …, priority 2021, published 2025)
